Data: the PETadex activity labels (doi:10.1186/s13568-014-0044-9)

B1: unnamed (protein)
chain: MSLRKSFGLLSATAALVAGLVAAPPAQAAANPYQRGPDPTESLLRAARGPFAVSEQSVSRLSVSGFGGGRIYYPTTTSQGTFGAIAISPGFTASWSSLAWLGPRLASHGFVVIGIETNTRLDQPDSRGRQLLAALDYLTQRSSVRNRVDASRLAVAGHSMGGGGTLEAAKSRTSLKAAIPIAPWNLDKTWPEVRTPTLIIGGELDSIAPVATHSIPFYNSLTNAREKAYLELNNASHFFPQFSNDTMAKFMISWMKRFIDDDTRYDQFLCPPPRAIGDISDYRDTCPHT
B2: unnamed (protein)
chain: MKRTLKRALSLLPAAALAASALVAASPAQAAANPYQRGPNPTEASITAARGPFNTAEITVSRLSVSGFGGGKIYYPTTTSEGTFGAIAISPGFTAYWSSLEWLGHRLASQGFVVIGIETNTTLDQPDQRGQQLLAALDYLTQRSAVRDRVDASRLAVAGHSMGGGGSLEAAKARTSLKAAIPLAPWNLDKTWPEVRTPTLIIGGELDAVAPVATHSIPFYNSLSNAPEKAYLELDNASHFFPNITNTQMAKYMIAWMKRFIDDDTRYTQFLCPPPSTGLLSDFSDARFTCPM

Tests used:
[1] = substrate: p-NP-C4; conditions: pH 8.5; 25 °C
[2] = substrate: pNPB; assay: Proxy for plastic degradation [Km]; conditions: pH 8.5
[3] = substrate: pNPB; assay: Proxy for plastic degradation [kcat] (s⁻¹); conditions: pH 8.5
[4] = substrate: pNPB; assay: Proxy for plastic degradation [Residual activity]; conditions: pH 8.5
[5] = substrate: pNPB; assay: Proxy for plastic degradation [Relative activity]

| Protein | Km [1] | kcat [1] | kcat/Km [1] | Proxy for plastic degradation [2] | Proxy for plastic degradation [3] | Proxy for plastic degradation ([3]; 25 °C) | Proxy for plastic degradation ([4]; 50 °C, 0 h) | Proxy for plastic degradation ([4]; 50 °C, 10 h) | Proxy for plastic degradation ([4]; 50 °C, 20 h) | Proxy for plastic degradation ([4]; 50 °C, 30 h) | Proxy for plastic degradation ([4]; 50 °C, 45 h) | Proxy for plastic degradation ([4]; 50 °C, 60 h) | Proxy for plastic degradation ([4]; 55 °C, 0 h) | Proxy for plastic degradation ([4]; 55 °C, 10 h) | Proxy for plastic degradation ([4]; 55 °C, 20 h) | Proxy for plastic degradation ([4]; 55 °C, 30 h) | Proxy for plastic degradation ([4]; 55 °C, 45 h) | Proxy for plastic degradation ([4]; 55 °C, 60 h) | Proxy for plastic degradation ([4]; 60 °C, 0 h) | Proxy for plastic degradation ([4]; 60 °C, 10 h) | also measured |
| --- | --- | --- | --- | --- | --- | --- | --- | --- | --- | --- | --- | --- | --- | --- | --- | --- | --- | --- | --- | --- | --- |
| B1 | 88.8 µM | 2.3 s⁻¹ | 25900 M⁻¹ s⁻¹ | 88.8 µM | 2.3 | 2.3 | 100% | 100% | 105% | 110% | 115% | 114% | 100% | 103% | 95% | 90% | 89% | 80% | 100% | 35% | Proxy for plastic degradation ([4]; 60 °C, 20 h): 32%; Proxy for plastic degradation ([4]; 60 °C, 30 h): 30%; Proxy for plastic degradation ([4]; 60 °C, 45 h): 25%; Proxy for plastic degradation ([4]; 60 °C, 60 h): 25%; Proxy for plastic degradation ([5]; 30 °C): 35%; Proxy for plastic degradation ([5]; 40 °C): 50%; Proxy for plastic degradation ([5]; 50 °C): 70%; Proxy for plastic degradation ([5]; 55 °C): 85%; Proxy for plastic degradation ([5]; 60 °C): 100%; Proxy for plastic degradation ([5]; 65 °C): 70%; Proxy for plastic degradation ([5]; 70 °C): 35%; Proxy for plastic degradation ([5]; pH 6.5): 10%; Proxy for plastic degradation ([5]; pH 7): 22%; Proxy for plastic degradation ([5]; pH 7.5): 50%; Proxy for plastic degradation ([5]; pH 8): 85%; Proxy for plastic degradation ([5]; pH 8.5): 100%; Proxy for plastic degradation ([5]; pH 9): 95%; Proxy for plastic degradation ([5]; pH 9.5): 75% |
| B2 | 83 µM | 12.4 s⁻¹ | 149000 M⁻¹ s⁻¹ | 83.1 µM | 12.4 | 12.4 | 100% | 85% | 75% | 70% | 45% | 40% | 100% | 15% | 15% | 15% | 14% | 15% | 100% | 15% | Proxy for plastic degradation ([4]; 60 °C, 20 h): 15%; Proxy for plastic degradation ([4]; 60 °C, 30 h): 15%; Proxy for plastic degradation ([4]; 60 °C, 45 h): 15%; Proxy for plastic degradation ([4]; 60 °C, 60 h): 14%; Proxy for plastic degradation ([5]; 30 °C): 25%; Proxy for plastic degradation ([5]; 40 °C): 40%; Proxy for plastic degradation ([5]; 50 °C): 75%; Proxy for plastic degradation ([5]; 55 °C): 100%; Proxy for plastic degradation ([5]; 60 °C): 80%; Proxy for plastic degradation ([5]; 65 °C): 50%; Proxy for plastic degradation ([5]; 70 °C): 10%; Proxy for plastic degradation ([5]; pH 6.5): 10%; Proxy for plastic degradation ([5]; pH 7): 22%; Proxy for plastic degradation ([5]; pH 7.5): 55%; Proxy for plastic degradation ([5]; pH 8): 95%; Proxy for plastic degradation ([5]; pH 8.5): 100%; Proxy for plastic degradation ([5]; pH 9): 90%; Proxy for plastic degradation ([5]; pH 9.5): 65% |
